The source of these data is patent US20080299140A1, “Immunogenic Composition and Peptide Sequences for Prevention and Treatment of an Hsv Condition” (priority 2002, published 2008).

Experiment [1] concerns the target HLA-DR(α1*0101,α1*1501) (human). The experiment is described as follows: reference IC50 of the tracer peptide in the HLA class II competition assay.
Experiment [2] addresses HLA-DR(α1*0101,α1*1101) (human). The description is as above.
Experiment [3] addresses HLA-DR(α1*0101,α1*0701) (human). Nature of the experiment: competition assay on purified HLA; tracer YKL.
Experiment [4] has as its target HLA-DR(α1*0101,α4*0101) (human). Nature of the experiment: competition assay on purified HLA; tracer E2/E168.
The target of experiment [5] is HLA-DR(α1*0101,α1*0301) (human). The experiment is described as follows: competition assay on purified HLA; tracer MT (2-16).
Experiment [6] concerns the target HLA-DR(α1*0101,α1*1301) (human). Nature of the experiment: competition assay on purified HLA; tracer B1 (21-36).
Experiment [7] concerns the target HLA-DR(α1*0101,α1*1501) (human). The experiment is described as follows: competition assay on purified HLA; tracer A3 (152-166).
Experiment [8] concerns the target HLA-DR(α1*0101,α1*0101) (human). The experiment is described as follows: competition assay on purified HLA; tracer HA (307-319).
Experiment [9] addresses HLA-DR(α1*0101,α1*0401) (human). The experiment is described as above.
The target of experiment [10] is HLA-DR(α1*0101,α5*0101) (human). The experiment is described as above.
The target of experiment [11] is DP (α1*0101, α1*0402) (human). The experiment is described as follows: competition assay on purified HLA; tracer bOxy 271-287.
Experiment [12] concerns the target HLA-DP(α1*0101,α1*0401) (human). The experiment is described as above.
The target of experiment [13] is HLA-DR(α1*0101,α3*0101) (human). Nature of the experiment: competition assay on purified HLA; tracer LOL (191-210).
Experiment [14] has as its target DP401=HLA-DP(α1*0101,α1*0401) (human). Nature of the experiment: HLA class II competition binding assay, biotinylated tracer peptide.
Experiment [15] deals with DP402=HLA-DR(α1*0101,α1*0402) (human). The experiment is described as above.
Experiment [16] has as its target DR13=HLA-DR(α1*0101,α1*1301) (human). Described as above.
In experiment [17] the target is DR15=HLA-DR(α1*0101,α1*1501) (human). The experiment is described as above.
For experiment [18], the target named is DR1=HLA-DR(α1*0101,α1*0101) (human). Described as above.
Experiment [19] deals with DR3=HLA-DR(α1*0101,α1*0301) (human). The description is as above.
In experiment [20] the target is DR4=HLA-DR(α1*0101,α1*0401) (human). The description is as above.
The target of experiment [21] is DR7=HLA-DR(α1*0101,α1*0701) (human). The description is as above.
For experiment [22], the target named is DRB3=HLA-DR(α1*0101,α3*0101) (human). Described as above.
For experiment [23], the target named is DRB4=HLA-DR(α1*0101,α4*0101) (human). The description is as above.
Experiment [24] deals with DRB5=HLA-DR(α1*0101,α5*0101) (human). Described as above.
Experiment [25] addresses HLA-DR(α1*0101,α1*1101) (human). Nature of the experiment: competition assay on purified HLA; tracer HA (307-319).
The target in experiment [26] is DR11=HLA-DR(α1*0101,α1*1101) (human). Nature of the experiment: HLA class II competition binding assay, biotinylated tracer peptide.

For the substance A3 (152-166) (peptide), in experiment [1], the IC50 (in general, the concentration at which inhibition is half-maximal) stood at 13 nM.

In experiment [2], HA (307-319) (peptide) showed an IC50 of 52 nM.

In the case of HSV1 9 (gB837-870) (peptide), the concentration for half-maximal inhibition (IC50) came out at 229 nM in experiment [3]; 16000 nM in [4]; 11400 nM in experiment [5]; 362 nM in experiment [6]; 2430 nM in experiment [7]; 493 nM in experiment [8]. Further, the 50% inhibitory concentration (IC50) worked out at 4000 nM in experiment [9]; 559 nM in experiment [10]; 4000 nM in [11]; 8000 nM in experiment [12]; 58000 nM in experiment [13]; 8000 nM in experiment [14]. Further, the concentration for half-maximal inhibition (IC50) is 4000 nM in experiment [15]; 362 nM in experiment [16]; 2430 nM in [17]; 493 nM in [18]; 11400 nM in [19]; 4000 nM in experiment [20]. Also, the IC50 in experiment [21] amounted to 229 nM; in experiment [22], 58000 nM; in experiment [23], 16000 nM; in [24] it was 559 nM.

HSV1 29 (gD1-23) (peptide): the IC50 in experiment [3] was 894 nM; in experiment [4] it was 52500 nM; in [5], 120 nM; in [6], over 100000 nM; in experiment [7], 24500 nM; in experiment [9], 82 nM. The IC50 in [25] amounted to 5250 nM; in experiment [10], 8 nM; in [11] it was 1630 nM; in [12], 17600 nM; in experiment [13] it was 1400 nM; in experiment [14] it was 17600 nM. Moreover, the half-maximal inhibitory concentration (IC50) in [15] was 1630 nM; in [26], 5250 nM; in [16], over 100000 nM; in experiment [17] it was 24500 nM; in experiment [19], 120 nM; in experiment [20], 82 nM. Moreover, the half-inhibitory concentration (IC50) worked out at 894 nM in [21], 1400 nM in experiment [22], 52500 nM in experiment [23] and 8 nM in experiment [24].

Consider HSV1 31 (gD22-52) (peptide), for which the IC50 in experiment [4] is 397 nM; in experiment [5], 2490 nM; in [6], over 100000 nM; in experiment [8] it was 3 nM; in experiment [9] it was 63 nM; in experiment [11], 47000 nM. For the same substance, the IC50 was 62000 nM in experiment [12]; 5980 nM in [13]; 62000 nM in experiment [14]; 49000 nM in [15]; over 100000 nM in [16]; 3 nM in experiment [18]. Besides, the half-inhibitory concentration (IC50) in [19] amounted to 2490 nM; in experiment [20], 63 nM; in experiment [22], 6980 nM; in experiment [23], 397 nM.

In the case of HSV1 33 (gD121-152) (peptide), the IC50 in [3] was 19 nM; in experiment [4] it was 319 nM; in experiment [5], 66 nM; in experiment [7] it was 2 nM; in experiment [8], 53 nM; in experiment [9] it was 8 nM. For the same substance, the IC50 was 289 nM in [25]; 134 nM in experiment [10]; 65 nM in experiment [11]; 83 nM in experiment [12]; 226 nM in experiment [13]; 83 nM in [14]. In addition, the IC50 is 65 nM in experiment [15]; 289 nM in experiment [26]; 2 nM in [17]; 53 nM in experiment [18]; 66 nM in [19]; 6 nM in experiment [20]. For the same substance, the IC50 is 19 nM in experiment [21], 226 nM in [22], 319 nM in experiment [23] and 134 nM in experiment [24].

For the substance HSV1 35 (gD287-317) (peptide), the half-maximal inhibitory concentration (IC50) in [4] is 3260 nM; in experiment [5], 19500 nM; in experiment [6], over 100000 nM; in experiment [7], 6790 nM; in experiment [8], 3160 nM; in experiment [9], 600 nM. For the same substance, the half-inhibitory concentration (IC50) in [25] is 25000 nM; in experiment [10], 4500 nM; in experiment [11] it was over 100000 nM; in experiment [12], over 100000 nM; in [13] it was 5000 nM; in experiment [14] it was over 100000 nM. For the same substance, the IC50 was over 100000 nM in [15]; 25000 nM in [26]; over 100000 nM in experiment [16]; 6790 nM in experiment [17]; 3160 nM in [18]; 19500 nM in experiment [19]. For the same substance, the IC50 in experiment [20] came out at 600 nM; in experiment [22], 5000 nM; in experiment [23], 3260 nM; in [24] it was 4500 nM.

Take HSV1 36 (gD49-82) (peptide): the IC50 in experiment [3] was 173 nM; in experiment [5], 1250 nM; in [6] it was over 100000 nM; in experiment [7], 18 nM; in [8], 3 nM; in [9], 93 nM. The IC50 turned out to be 120 nM in experiment [25]; 66 nM in experiment [10]; 98 nM in [11]; 615 nM in [12]; 5000 nM in experiment [13]; 615 nM in experiment [14]. Further, the half-inhibitory concentration (IC50) in experiment [15] is 98 nM; in experiment [26] it was 120 nM; in [16], over 100000 nM; in experiment [17], 18 nM; in [18] it was 3 nM; in experiment [19] it was 1250 nM. Moreover, the half-maximal inhibitory concentration (IC50) is 93 nM in experiment [20], 173 nM in experiment [21], 5000 nM in [22] and 66 nM in [24].

For the substance HSV1 37 (gD200-234) (peptide), the 50% inhibitory concentration (IC50) in [3] was found to be 200 nM; in experiment [4], 3740 nM; in experiment [5], 307 nM; in [6], 2050 nM; in experiment [7], 13 nM; in [8], 4 nM. Further, the IC50 in experiment [9] worked out at 40 nM; in [25], 44 nM; in [10], 68 nM; in [11] it was 167 nM; in [13], 41 nM; in [15], 167 nM. The concentration for half-maximal inhibition (IC50) worked out at 44 nM in [26]; 2050 nM in [16]; 13 nM in experiment [17]; 4 nM in experiment [18]; 307 nM in experiment [19]; 40 nM in experiment [20]. Also, the 50% inhibitory concentration (IC50) is 200 nM in experiment [21], 41 nM in experiment [22], 3740 nM in experiment [23] and 68 nM in experiment [24].

On to HSV1 39 (gD332-358) (peptide), for which the IC50 was determined as 274 nM in experiment [3]; 703 nM in experiment [4]; 950 nM in experiment [7]; 5870 nM in [9]; 5 nM in experiment [25]; 31 nM in [10]. The IC50 is over 100000 nM in [11]; 2310 nM in [13]; over 100000 nM in experiment [15]; 5 nM in experiment [26]; 950 nM in experiment [17]; 5870 nM in experiment [20]. Moreover, the IC50 in [21] worked out at 274 nM; in [22], 2310 nM; in [23], 703 nM; in [24] it was 31 nM.

As to HSV1 40 (gD228-257) (peptide), the 50% inhibitory concentration (IC50) in [3] turned out to be 20 nM; in experiment [4], 1160 nM; in experiment [5] it was 2390 nM; in experiment [6], 1590 nM; in [7], 2 nM; in experiment [8] it was 1160 nM. Moreover, the IC50 in experiment [9] is 9920 nM; in [25], 39 nM; in [11], 7210 nM; in experiment [12] it was 1360 nM; in [13], over 100000 nM; in [14], 1360 nM. In addition, the IC50 in experiment [15] amounted to 7210 nM; in experiment [26] it was 39 nM; in experiment [16], 1590 nM; in experiment [17], 2 nM; in experiment [18], 1160 nM; in experiment [19], 2390 nM. Further, the IC50 in [20] was 9920 nM; in experiment [21] it was 20 nM; in [22], over 100000 nM; in experiment [23], 1160 nM.
